Assay results as given in US20250011363A1, “OPTIMIZED SHORTENED PEPTIDE THAT BINDS TO ACETYLCHOLINE RECEPTOR, AND USE THEREOF” (SKINMED CO., LTD., priority 2021, published 2025).

B1: 5mer-175 (peptide)
peptide: RWQLK
B2: 5mer-475 (peptide)
peptide: RRFCK
B3: 5mer-176 (peptide)
peptide: RVLYK
B4: 5mer-476 (peptide)
peptide: RSICK
B5: 5mer-177 (peptide)
peptide: RWVRK
B6: 5mer-477 (peptide)
peptide: KGYSR
B7: 5mer-178 (peptide)
peptide: RRVLK
B8: 5mer-478 (peptide)
peptide: RVQTK
B9: 5mer-179 (peptide)
peptide: RLYTK
B10: 5mer-479 (peptide)
peptide: RQYYK
B11: 5mer-180 (peptide)
peptide: KQRYR
B12: 5mer-480 (peptide)
peptide: RWYLR
B13: 5mer-181 (peptide)
peptide: RSLLK
B14: 5mer-481 (peptide)
peptide: KSYCK
B15: 5mer-182 (peptide)
peptide: RVLSK
B16: 5mer-482 (peptide)
peptide: KQFCK
B17: 5mer-183 (peptide)
peptide: KRVYR
B18: 5mer-483 (peptide)
peptide: RSISR
B19: 5mer-184 (peptide)
peptide: KLQCR
B20: 5mer-484 (peptide)
peptide: RSFQK
B21: 5mer-185 (peptide)
peptide: RRYRR
B22: 5mer-485 (peptide)
peptide: KRQRK
B23: 5mer-186 (peptide)
peptide: KRLQR
B24: 5mer-486 (peptide)
peptide: RWLQR
B25: 5mer-187 (peptide)
peptide: RWVCR
B26: 5mer-487 (peptide)
peptide: RLVTK
B27: 5mer-188 (peptide)
peptide: KWFSK
B28: 5mer-488 (peptide)
peptide: KVRSR
B29: 5mer-189 (peptide)
peptide: RLLQK
B30: 5mer-489 (peptide)
peptide: KSYSR
B31: 5mer-190 (peptide)
peptide: RWRSR

Target: acetylcholine receptor
Experiment: SPR, AchR immobilized on chip, peptide 10 uM

Question: Which Binding affinity (RU) does the source give for B1 here?
Answer: 63 RU

Question: With B2 as the binder, how does the Binding affinity (RU) read?
Answer: 56 RU

Question: How did the Binding affinity (RU) turn out when B3 was run?
Answer: 52 RU

Question: Which Binding affinity (RU) does the source give for B4 here?
Answer: 70 RU

Question: B5 was tested. Which Binding affinity (RU) did it give?
Answer: 77 RU

Question: B6 was tested. Which Binding affinity (RU) did it give?
Answer: 58 RU

Question: With B7 as the binder, how does the Binding affinity (RU) read?
Answer: 87 RU

Question: B8 was tested. Which Binding affinity (RU) did it give?
Answer: 75 RU

Question: For B9, which Binding affinity (RU) is on record?
Answer: 55 RU

Question: Which Binding affinity (RU) does the source give for B10 here?
Answer: 70 RU

Question: With B11 as the binder, how does the Binding affinity (RU) read?
Answer: 74 RU

Question: Which Binding affinity (RU) does the source give for B12 here?
Answer: 75 RU

Question: With B13 as the binder, how does the Binding affinity (RU) read?
Answer: 72 RU

Question: B14 was tested. Which Binding affinity (RU) did it give?
Answer: 78 RU

Question: B15 was tested. Which Binding affinity (RU) did it give?
Answer: 70 RU

Question: B16 was tested. Which Binding affinity (RU) did it give?
Answer: 75 RU

Question: How did the Binding affinity (RU) turn out when B17 was run?
Answer: 64 RU

Question: Which Binding affinity (RU) does the source give for B18 here?
Answer: 51 RU

Question: B19 was tested. Which Binding affinity (RU) did it give?
Answer: 68 RU

Question: For B20, which Binding affinity (RU) is on record?
Answer: 51 RU

Question: Which Binding affinity (RU) does the source give for B21 here?
Answer: 86 RU

Question: For B22, which Binding affinity (RU) is on record?
Answer: 58 RU

Question: B23 was tested. Which Binding affinity (RU) did it give?
Answer: 64 RU

Question: With B24 as the binder, how does the Binding affinity (RU) read?
Answer: 53 RU

Question: For B25, which Binding affinity (RU) is on record?
Answer: 74 RU

Question: With B26 as the binder, how does the Binding affinity (RU) read?
Answer: 62 RU

Question: For B27, which Binding affinity (RU) is on record?
Answer: 82 RU

Question: For B28, which Binding affinity (RU) is on record?
Answer: 58 RU

Question: B29 was tested. Which Binding affinity (RU) did it give?
Answer: 65 RU

Question: How did the Binding affinity (RU) turn out when B30 was run?
Answer: 63 RU

Question: For B31, which Binding affinity (RU) is on record?
Answer: 84 RU
